# Measurements reported in patent publication US20240165165A1, “PHARMACEUTICAL COMPOSITIONS AND THEIR METHODS OF USE” (The Trustees of Indiana University, priority 2021, published 2024).
# B1: Trail: recombinant TRAIL proteins, apoptosis-inducing factor (protein, UniProt P50592 1-291, looked up)
# Tumor necrosis factor ligand …: MPSSGALKDLSFSQHFRMMVICIVLLQVLLQAVSVAVTYMYFTNEMKQLQDNYSKIGLACFSKTDEDFWDSTDGEILNRPCLQVKRQLYQLIEEVTLRTFQDTISTVPEKQLSTPPLPRGGRPQKVAAHITGITRRSNSALIPISKDGKTLGQKIESWESSRKGHSFLNHVLFRNGELVIEQEGLYYIYSQTYFRFQEAEDASKMVSKDKVRTKQLVQYIYKYTSYPDPIVLMKSARNSCWSRDAEYGLYSIYQGGLFELKKNDRIFVSVTNEHLMDLDQEASFFGAFLIN
# Legend:
# Format in all cases: cell-based, mouse
# [1] = system: RANKL-stimulated RAW264.7 pre-osteoclasts; assay: Western blot of NFATc1 and cathepsin K
# Experimental: Western blot analysis and mass spectrometry. Western blot analysis was conducted using known procedures. Antibodies were used against ANXA1, β-catenin, caspase 3, Lrp5, Lrp6, Runx2, Sclerostin, Snail, TGFβ, NFATc1, cathepsin K (Cell Signaling, Danvers, MA, USA), DMP1, ANXA6, CXCL5 (Abcam, Cambridge, MA, USA), M-CSF, MMP9, OPN, TPM4 (Santa Cruz, Dallas, TX, USA), WISP1 (R&D systems, Minneapolis, MN, USA), β-actin (Sigma, Saint Louis, MO, USA), LIMA1, Trail (Novus, Centennial, CO, USA), p53 and CXCL1 (Invitrogen, Carlsbad, California, USA), and DSP (ProteinTech, Rosemont, IL, USA). The expression levels of Sclerostin and Lrp5 in CM were detected by ELISA (My BioSource, San Diego, CA, USA). Proteins from A5 osteocyte CM, Y4 osteocyte CM, and osteoclast control CM (RAW264.7 cells) were analyzed by the HF Hybrid Quadrupole Orbitrap mass spectrometry. Among 549 identified proteins, 49 proteins presented higher expression levels in A5 CM than Y4 CM and control CM. […]
# Western blot analysis and protein array analysis. […] A proteome profiler mouse XL cytokine array kit (R&D Systems, Minneapolis, MN, USA) was also employed, and the expression of 111 cytokines and chemokines in MSC-derived CM was determined.
# Western blot analysis. […] The protein concentration was determined using a BCA Protein Assay kit (Thermo-Fisher). […]
# TRAMP cells = assay: Western blot of proteins in treated tumor cells
# Experimental: (§1) Western blot analysis and protein array analysis. Western blot analysis was conducted using the procedure previously described. Antibodies against Lrp5, Runx2, Snail, TGFβ, sclerostin, Calr, p-eIF2α, eIF2α (Cell Signaling, Danvers, MA, USA), LIF, Trail (Novus Biologicals, Centennial, CO, USA), MMP9, NFATc1, cathepsin K (Santa Cruz Biotechnology, Dallas, TX, USA), p53, CXCL2, Ppib (Invitrogen, Carlsbad, CA, USA), Hsp90ab1 (Abcam, Cambridge, UK), and β-actin (Sigma, Saint Louis, MO, USA) were used. A proteome profiler mouse XL cytokine array kit (R&D Systems, Minneapolis, MN, USA) was also employed, and the expression of 111 cytokines and chemokines in MSC-derived CM was determined.
# Western blot analysis. Cultured cells were lysed in a radio-immunoprecipitation assay buffer with protease inhibitors (Santa Cruz Biotechnology, Santa Cruz, CA, USA) and phosphatase inhibitors (Calbiochem, Billerica, MA, USA). The protein concentration was determined using a BCA Protein Assay kit (Thermo-Fisher). Proteins were fractionated by 10-15% SDS gels and electro-transferred to polyvinylidene difluoride transfer membranes (Millipore, Billerica, MA, USA). […] The level of proteins was determined using a SUPERSIGNAL™ west femto maximum sensitivity substrate (Thermo Scientific, Waltham, MA, USA), and a luminescent image analyzer (LAS-3000, Fuji Film, Tokyo, Japan) was used to quantify signal intensities. […]
# EO771 cells = assay: Western blot of proteins in treated tumor cells
# Experimental: Western blot analysis and mass spectrometry. Western blot analysis was conducted using known procedures. Antibodies were used against ANXA1, β-catenin, caspase 3, Lrp5, Lrp6, Runx2, Sclerostin, Snail, TGFβ, NFATc1, cathepsin K (Cell Signaling, Danvers, MA, USA), DMP1, ANXA6, CXCL5 (Abcam, Cambridge, MA, USA), M-CSF, MMP9, OPN, TPM4 (Santa Cruz, Dallas, TX, USA), WISP1 (R&D systems, Minneapolis, MN, USA), β-actin (Sigma, Saint Louis, MO, USA), LIMA1, Trail (Novus, Centennial, CO, USA), p53 and CXCL1 (Invitrogen, Carlsbad, California, USA), and DSP (ProteinTech, Rosemont, IL, USA). The expression levels of Sclerostin and Lrp5 in CM were detected by ELISA (My BioSource, San Diego, CA, USA). Proteins from A5 osteocyte CM, Y4 osteocyte CM, and osteoclast control CM (RAW264.7 cells) were analyzed by the HF Hybrid Quadrupole Orbitrap mass spectrometry. Among 549 identified proteins, 49 proteins presented higher expression levels in A5 CM than Y4 CM and control CM. Among them, 11 proteins (p53; SPARC=osteonectin; TPM1, TPM4=tropomyosin 1 & 4; ANXA1, ANXA6=annexin A1 & A6; FMOD=fibromodulin; OGN=osteoglycin; DSP=desmoplakin; AHNAK=desmoyokin; and LIMA1=[…] domain actin-binding protein 1) were identified as potential tumor suppressors.
# as §1
# Spheroid assay, plasmid transfection, and Western blot analysis. […]
molecule,measurement,setting,value
B1,NFATc1 and cathepsin K,[1],decreased
same,cleaved caspase 3 in TRAMP cells,TRAMP cells,increase
same,"tumor-promoting genes (Lrp5, Runx2, MMP9, Snail, TGFβ) in TRAMP cells",TRAMP cells; Western blot,downregulated
same,"tumor-promoting/tumorigenic proteins (Lrp5, MMP9, Runx2, TGFβ, Snail, IL1β etc.) in EO771 cells",EO771 cells,reduced
